Measured values reported in article doi:10.1101/2023.08.24.554544 (bioRxiv, 2023).

T1: GST-tagged A. thaliana Rpn10 (AtRpn10) vWA domain (Arabidopsis thaliana, UniProt P55034 2-193)
T1 construct: also called GST-AtRpn10; GST-Rpn10vWA
T1 sequence: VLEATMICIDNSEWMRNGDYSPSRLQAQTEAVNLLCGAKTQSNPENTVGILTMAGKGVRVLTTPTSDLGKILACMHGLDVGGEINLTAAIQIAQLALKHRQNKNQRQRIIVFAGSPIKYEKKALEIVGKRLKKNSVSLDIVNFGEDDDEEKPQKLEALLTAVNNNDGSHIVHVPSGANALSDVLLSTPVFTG


Biological target: T1, GST-tagged A. thaliana Rpn10 (AtRpn10) …
Assay: SPR
Conditions: both partners purified

Binder	Kd
onion yellows phytoplasma (OY-M strain) SAP05 (OY_SAP05) (natural protein, source: E. coli BL21(DE3), purified (Ni-NTA, Superdex 75)) APHEERVGDMRIVNITFSDINSIKNFQPFSQYFDFTLTGPRYNGNIAQFAMIWKIKNPPHNLLGVFFDNNTRDDEDDKYTLEELKQMGNGAKNMYIFWQYEQK	398 ± 39 nM
aster yellows witches'-broom phytoplasma SAP05 (AYWB_SAP05), mature, 33-135 (natural protein, source: E. coli BL21(DE3), purified (Ni-NTA, Superdex 75)) APNEEFVGDMRIVNVNLSNIDILKKHETFKKYFDFTLTGPRYNGNIAEFAMIWKIKNPPLNLLGVFFDDGTRDDEDDKYILEELKQIGNGAKNMYIFWQYEQK	400 ± 39 nM
